# Results: patent US20230135723A1, “ANTI-CD98 ANTIBODIES AND ANTIBODY DRUG CONJUGATES” (AbbVie Inc., priority 2016, published 2023)
# Marks after values point to notes of the source that are not given here.
# B1: ChAb3- CZ-DAR2 (conjugate)
# VH: EVKLVESGGGLVQPGNSLRLSCATSGFTFIDYYMSWVRQSPGKALEWLGFIRNKANGYTTEYSASVKGRFTISRDNSQSILYLQMDTLRAEDSATYYCTRDRPAWFVYWGQGTLVTVSA
# VL: DIVMSQSPSSLAVSVGEKVTMSCKSSQSLLYSSNQKNYLAWYQQKPGQSPKLLIYWASTRESGVPDRFTGSGSGTDFTLTFSSVRAEDLAVYYCQQYYSYPYTFGGGTKLEIK
# Assays:
# [1] = test system: EBC-1 (human lung squamous cell carcinoma) xenograft; assay: EBC-1 xenograft tumor growth inhibition; type: in vivo; settings: 10 mg/kg/day IP QDx1, SCID-bg mice
# [2] = Percent aggregates of ADC by size exclusion chromatography; type: physicochemical; settings: chAb3-CZ DAR2, DAR4 and broad DAR species (Table 12)
# Source text: Procedures for DAR and percent aggregate determination are described above in Example 5.
molecule,measurement,setting,value
B1,Growth Inhibition TGD (%),[1],32* %
same,Growth Inhibition TGImax (%),[1],55* %
same,Response Frequency CR (%),[1],0%
same,Response Frequency OR (%),[1],0%
same,Response Frequency PR (%),[1],0%
same,% Aggregates by SEC,[2],0.5%
